# Results published in paper PMC11880434 (Nature Communications, 2025).
# Tests used:
# [1] = target: mucin binding domain of MbpA (L. plantarum WCFS1); assay: MST
# [2] = target: mucin binding domain of MbpB (L. plantarum WCFS1); assay: MST
# [3] = target: T1, MbpR (Lactiplantibacillus plantarum, UniProt F9USQ8); assay: ITC; format: binding
# T1 sequence (F9USQ8 1-306): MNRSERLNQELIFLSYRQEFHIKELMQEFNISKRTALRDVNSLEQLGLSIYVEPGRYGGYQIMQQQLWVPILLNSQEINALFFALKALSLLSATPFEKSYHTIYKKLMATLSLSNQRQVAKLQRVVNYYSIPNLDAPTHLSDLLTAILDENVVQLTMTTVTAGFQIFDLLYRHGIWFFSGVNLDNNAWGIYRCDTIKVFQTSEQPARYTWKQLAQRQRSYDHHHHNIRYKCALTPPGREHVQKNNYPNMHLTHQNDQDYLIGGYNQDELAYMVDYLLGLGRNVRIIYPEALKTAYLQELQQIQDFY
Kd [1] [nM],Kd [2] [nM],Kd [3] [nM],Compound
530,690,,mucin (natural protein)
,,220,Nc1nc2c(ncn2[C@@H]2O[C@@H]3CO[P@](=O)(O)O[C@H]4[C@@H](O)[C@H](n5cnc6c(=O)[nH]c(N)nc65)O[C@@H]4CO[P@](=O)(O)O[C@H]3[C@H]2O)c(=O)[nH]1 [c-di-GMP]
